Reference: US5972902, “DNA encoding human IL-6 receptor antagonist and protein encoded thereby” (dated 1999)
Where a chain is given by its changes, count along the chain named. Numbers in names are those of the source. Each block holds one molecule with its values, some of them ahead of it.

Columns and labels:
hIL-6 receptor [1] = target: T1, hIL-6 receptor (human, UniProt P08887)
hIL-6 receptor [2] = target: T1, hIL-6 receptor; experiment: receptor binding assay by the method of Savino et al. 1994
Description: The proteins IL-6 DFRD/D160R (coded by the cDNA described in SEQ ID NO:4), IL-6 DFRD/W157R/D160R (coded by the cDNA described in SEQ ID NO:5) and IL-6 DFRD/T162D (coded by the cDNA described in SEQ ID NO:6) were produced according to the state of the art, as described (Arcone, R., Pucci, P., Zappacosta, F., Fontaine, V., Malorni, A., Marino, G., and Ciliberto, G., Eur. J. Biochem. 198, 541–547, 1991). The ability of the mutants to bind to the hIL-6 receptor was measured using state of the art methods, as described (Savino, R., Lahm, A., Salvati, A. L., Ciapponi, L., Sporeno, E., Altamura, S., Paonessa, G., Toniatti, C., Ciliberto, G., EMBO J. 13, 1357–1367, 1994). Table 1 below gives the receptor binding levels for wild type IL-6 and for the mutant forms obtained as described in example 1.

gp130 = gp130 (Homo sapiens (Human), UniProt P40189); experiment: cell-based or functional assay

90% inhibition of interleukin-6 activity on hepatoma cells Hep3B (4 ng/ml wild type IL-6) (hIL-6 receptor [1]): 30 ng/mL
90% inhibition of interleukin-6 activity on myeloma cells XG-1 (IL-6-dependent growth, 0.1 ng/ml wild type IL-6) (hIL-6 receptor [1]): 35 ng/mL
90% inhibition of interleukin-6 activity on myeloma cells XG-2 (IL-6-dependent growth, 0.5 ng/ml wild type IL-6) (hIL-6 receptor [1]): 950 ng/mL
Molecule: Sant7 (ligand)

ability to bind to the IL-6 receptor (% of wild type) (hIL-6 receptor [2]): 137%
B1: IL-6 DFRD/D160R (ligand)
chain: PVPPGEDSKDVAAPHRQPLTSSERIDKQIRDILDFISALRKETCNKSNMCESSKEALAENNLNLPKMAEKDGCFQSGFNEETCLVKIITGLLEFEVYLEYLQNRFESSEEQARAVQMRTKDLIQFLQKKAKNLDAITTPDPTTNASLLTKLQAQNQWLQRMTTHLILRSFKEFLQSSLRALRQM

Biological activity on human hepatoma cells (gp130): 0%
ability to bind to the IL-6 receptor (% of wild type) (hIL-6 receptor [2]): 130%
B2: IL-6 DFRD/W157R/D160R (ligand)
chain: B1 chain with W157R

Biological activity on human hepatoma cells (gp130): 0%
ability to bind to the IL-6 receptor (% of wild type) (hIL-6 receptor [2]): 39%
B3: IL-6 DFRD/T162D (ligand)
chain: B1 chain with R160D, T162D
